In publication PMC11266248:
“And” between values parts separate entries of the source, which are not always exact repeats. Identical values can stand only once.

Legend:
[1] = target: recombinant factor H-like protein 1 (human) (UniProt P08603); assay: SPR; Biacore T100, CM5 chip; FH (750 RU), rFHL-1 or rFH15-20 (200 RU) amine-coupled as ligands; CspZ or FhbA as analytes; PBS with 0.05% Tween20, 25 °C, 30 µl/min; single-cycle and multiple-cycle kinetics, Langmuir 1:1 model; in duplicate
[2] = target: factor H binding A (FhbA) from Borrelia hermsii (Borrelia hermsii); assay: SEC-MALS; Superdex 200 increase 10/300 GL in PBS, 0.7 mL/min; 100 µL injected at about 3.75 mg/mL (CspZ) or 2.50 mg/mL (FhbA)
[3] = target: purified human complement factor H from human plasma/serum (human) (UniProt P08603); assay: SPR; Biacore T100, CM5 chip; FH (750 RU), rFHL-1 or rFH15-20 (200 RU) amine-coupled as ligands; CspZ or FhbA as analytes; PBS with 0.05% Tween20, 25 °C, 30 µl/min; single-cycle and multiple-cycle kinetics, Langmuir 1:1 model; in duplicate
[4] = target: recombinant factor H SCR15-20 (human) (UniProt P08603); assay: as above
[5] = target: factor H binding A (FhbA) from Borrelia hermsii (Borrelia hermsii); assay: LC-HRMS (ESI-Q-TOF); ACE C4 column, 0.1% formic acid/acetonitrile gradient, ESI+, deconvolution with UniDec

Sequence of purified human complement factor H from human plasma/serum (human) (P08603 19-1231): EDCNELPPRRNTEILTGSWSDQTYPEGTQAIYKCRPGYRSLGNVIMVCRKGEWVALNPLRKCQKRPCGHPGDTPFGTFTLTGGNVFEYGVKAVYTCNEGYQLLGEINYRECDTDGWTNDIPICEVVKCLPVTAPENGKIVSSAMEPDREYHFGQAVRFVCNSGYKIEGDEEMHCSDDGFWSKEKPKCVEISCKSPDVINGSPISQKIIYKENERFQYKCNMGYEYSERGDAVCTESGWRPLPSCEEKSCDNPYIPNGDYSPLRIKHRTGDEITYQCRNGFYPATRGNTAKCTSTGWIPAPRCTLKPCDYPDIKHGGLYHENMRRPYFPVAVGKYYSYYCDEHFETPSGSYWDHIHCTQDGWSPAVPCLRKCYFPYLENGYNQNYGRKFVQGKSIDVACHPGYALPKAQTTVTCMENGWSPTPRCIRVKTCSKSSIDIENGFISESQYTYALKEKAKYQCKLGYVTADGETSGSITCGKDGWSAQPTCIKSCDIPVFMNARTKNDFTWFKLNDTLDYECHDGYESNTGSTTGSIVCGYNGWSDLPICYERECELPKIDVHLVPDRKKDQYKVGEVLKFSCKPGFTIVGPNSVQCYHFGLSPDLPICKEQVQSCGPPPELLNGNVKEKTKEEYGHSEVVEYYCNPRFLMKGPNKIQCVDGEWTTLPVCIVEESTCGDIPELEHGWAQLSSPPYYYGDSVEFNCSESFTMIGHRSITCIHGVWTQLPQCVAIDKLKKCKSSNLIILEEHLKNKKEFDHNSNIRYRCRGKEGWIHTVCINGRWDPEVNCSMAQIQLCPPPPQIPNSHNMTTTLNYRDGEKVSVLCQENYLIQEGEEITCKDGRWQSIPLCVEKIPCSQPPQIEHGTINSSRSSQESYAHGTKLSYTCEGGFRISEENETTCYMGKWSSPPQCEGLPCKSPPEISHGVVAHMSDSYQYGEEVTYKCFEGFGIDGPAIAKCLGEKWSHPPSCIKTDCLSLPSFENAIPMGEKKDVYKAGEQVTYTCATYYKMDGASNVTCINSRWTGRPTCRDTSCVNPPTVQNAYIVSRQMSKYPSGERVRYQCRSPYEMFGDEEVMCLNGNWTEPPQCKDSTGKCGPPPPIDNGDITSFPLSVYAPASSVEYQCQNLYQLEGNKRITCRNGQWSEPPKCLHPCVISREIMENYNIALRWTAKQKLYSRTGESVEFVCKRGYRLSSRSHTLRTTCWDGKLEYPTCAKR
Sequence of recombinant factor H SCR15-20 (human) (P08603 860-1231): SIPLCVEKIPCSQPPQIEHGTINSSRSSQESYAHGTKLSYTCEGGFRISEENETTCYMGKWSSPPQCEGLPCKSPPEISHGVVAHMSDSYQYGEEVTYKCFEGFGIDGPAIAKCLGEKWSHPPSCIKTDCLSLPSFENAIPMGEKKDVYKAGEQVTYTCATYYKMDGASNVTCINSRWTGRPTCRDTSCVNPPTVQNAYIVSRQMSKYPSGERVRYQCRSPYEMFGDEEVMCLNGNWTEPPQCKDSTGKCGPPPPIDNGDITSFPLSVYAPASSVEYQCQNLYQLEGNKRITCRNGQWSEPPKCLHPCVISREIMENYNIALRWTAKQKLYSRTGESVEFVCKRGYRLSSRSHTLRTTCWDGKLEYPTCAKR
Sequence of recombinant factor H-like protein 1 (human) (P08603 other isoform, or with tags, fused parts or gaps): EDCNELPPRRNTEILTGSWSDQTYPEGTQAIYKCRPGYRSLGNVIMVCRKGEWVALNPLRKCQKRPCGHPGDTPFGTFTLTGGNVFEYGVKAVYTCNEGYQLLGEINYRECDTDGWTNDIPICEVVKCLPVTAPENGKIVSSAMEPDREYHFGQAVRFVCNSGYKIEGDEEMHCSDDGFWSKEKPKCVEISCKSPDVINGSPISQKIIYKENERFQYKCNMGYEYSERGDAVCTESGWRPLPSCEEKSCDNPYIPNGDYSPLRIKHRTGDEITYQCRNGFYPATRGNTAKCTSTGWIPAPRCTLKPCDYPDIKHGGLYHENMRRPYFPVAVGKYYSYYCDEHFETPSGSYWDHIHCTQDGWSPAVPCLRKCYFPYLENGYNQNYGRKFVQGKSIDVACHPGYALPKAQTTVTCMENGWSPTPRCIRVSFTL

Row | Substance | Kd [1] [nM] | koff [1] [s⁻¹] | kon [1] [M⁻¹ s⁻¹] | representation of the dimer peak (46.2 kDa) in the sample (%) [2] [%] | representation of the pentamer peak (119.0 kDa) in the sample (%) [2] [%] | representation of the trimer peak (71.7 kDa) in the sample (%) [2] [%] | stoichiometry N [2] | Kd [3] [nM] | koff [3] [s⁻¹] | kon [3] [M⁻¹ s⁻¹] | Kd [4] [nM] | koff [4] [s⁻¹] | kon [4] [M⁻¹ s⁻¹] | stoichiometry N [5]
1 | CspZ from Borrelia burgdorferi sensu stricto (complement regulator-acquiring surface protein 2) (from UniProt O50665 1-236) (natural protein) | 0.044 | 3.1e-05 | 720000 |  |  |  |  |  |  |  |  |  |  | 
2 | factor H binding A (FhbA) from Borrelia hermsii (natural protein) | 42.9 | 6.74e-05 | 1570 | 27 | 1 | 6 | 2 and 3 and 5 | 1.09 | 0.000268 | 246000 | 3.37 | 0.000266 | 85400 | 2
